Target: 3′-end processing factors
Assay: immunoprecipitation under standard salt conditions

For human tRNA splicing endonuclease, the percent of the 3′-end processing factors associated was < 1%.

— patent publication US20100136710A1
